Source: paper PMC12494797, “Multi-domain O-GlcNAcase structures reveal allosteric regulatory mechanisms” (Nature Communications, 2025)
Values belong to the molecule of their own block, whether it stands above or below them.

Experiments:
OgHAT (OgAT) = target: T1, OgHAT (OgAT) (Oceanicola granulosus, UniProt Q2CEE2); experiment: SPR (Biacore […]), […] equilibrium-binding fit
T1 construct: gene OG2516_04134; amine-biotinylated, captured on streptavidin CM5 chip; not known to form dimers

[1] = target: His-tagged Trichoplax adhaerens OGA pHAT domain (TapHAT) (Trichoplax adhaerens); experiment: SEC; analytical; Superdex 200 Increase 10/300 GL; 500 μL of His-tagged pHAT at 1 mg/mL; 25 mM Tris pH 7.5, 150 mM NaCl, 0.5 mM TCEP; LMW calibration standards
[2] = target: the molecule itself; experiment: cryo-EM structure; 0.5 mg/mL hOGA or TaOGA vitrified at 4 °C; Titan Krios 300 kV; CryoSPARC
[3] = target: the molecule itself; experiment: SEC; analytical; Superdex 200 Increase 10/300 GL; 500 μL of His-tagged pHAT at 1 mg/mL; 25 mM Tris pH 7.5, 150 mM NaCl, 0.5 mM TCEP; LMW calibration standards

T1 sequence (Q2CEE2 whole entry): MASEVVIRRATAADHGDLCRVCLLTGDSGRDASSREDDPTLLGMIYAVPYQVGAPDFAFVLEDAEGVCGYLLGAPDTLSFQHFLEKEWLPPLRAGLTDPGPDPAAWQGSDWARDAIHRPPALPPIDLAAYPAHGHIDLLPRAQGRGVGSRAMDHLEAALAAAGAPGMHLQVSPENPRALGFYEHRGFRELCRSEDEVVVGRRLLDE

Kd (OgHAT (OgAT)): 5 mM
Molecule: CC(=O)SCCNC(=O)CCNC(=O)[C@H](O)C(C)(C)COP(=O)(O)OP(=O)(O)OC[C@H]1O[C@@H](n2cnc3c(N)ncnc32)[C@H](O)[C@@H]1OP(=O)(O)O [acetyl-CoA]

stoichiometry N [1]: 2
Molecule: His-tagged Trichoplax adhaerens OGA pHAT domain (TapHAT) (domain or fragment)

B1: Trichoplax adhaerens O-GlcNAcase (TaOGA), residues 5-723 (enzyme, UniProt A0A0D5X2Y8 5-723, looked up)
chain: KFLSGVVEGFYGKPWSFEQRKTLFSNMAKWGLNTYMYGPKDDEKHRAAWKQAYSKREGDSLRALIRAAEESGILFIYAISPGVDITYSSNRDMKFLKDKLDQIRNFGCNSFAIFFDDIDTVMCLQDQEEFESFAAAQVEVTNEIYKYLGMPANFLFCPTEYCAARADPNVKESKYLVTVGTGLHSDIHIMWTGPKVVSNKISVESILELQTVLRRKPVIWDNIHANDYEQGRLNLGPYDCRPAELMESLNGIFTNPNCEFELNYVPIRTFSLWCQSKRTRFNYDVEKALEQSIREWTEEFCIPRLPDGYLLEADTSDTNVNEYMDDEMQSDSRPISPANSMETDKDELTVKDIRLLVELFYLPQKHGKTANDLLAQAKWLKSNFRIAALSRKPNDTSEGSNLDEHNTDYIAAKEWDKRFSKFRSICQIIHQFGDRLMTCRNRVLLYEVYNYVADLCGILYHLISRIHSLANPEKLEKRSDSEQSSFRYGGFVGDIHRLIVSTDEYEESTLKNSDAYVIRPFMPSDEETLYDLCLKSCIENSNGDEIYKREPRIIGDRDLGAYIYLHPEYIYVLEDDRDKICGYLCGALDSKQFYERYESEWLTQIRDRHPQPENDIASWTPEEIVANSFYNFTPPTDVSVLYLSHLEARFDSSVPEKVIKRIIRFILEQLKAKGSYGASMLIDSWRTNLRRIFTSMGFVDLQEYSWMSEQKCMIAIKLM
notes: TaOGA (TaOGA54), Trichoplax adhaerens, residues 5-723; the results call it full-length; also called TaOGA54; full-length TaOGA; source: E. coli BL21(DE3) pLysS, purified (Ni-NTA, PreScission cleavage, Superdex 200); not shown: His6, N-terminal, cleaved
binding result [2]: binds

B2: His-tagged human OGA pHAT domain (hpHAT) (domain or fragment, UniProt O60502 710-916, looked up)
chain: PTSKVYTIRPYFPKDEASVYKICREMYDDGVGLPFQSQPDLIGDKLVGGLLSLSLDYCFVLEDEDGICGYALGTVDVTPFIKKCKISWIPFMQEKYTKPNGDKELSEAEKIMLSFHEEQEVLPETFLANFPSLIKMDIHKKVTDPSVAKSMMACLLSSLKANGSRGAFCEVRPDDKRILEFYSKLGCFEIAKMEGFPKDVVILGRSL
notes: pHAT domain of human O-GlcNAcase (OGA), residues 710-916; non-cleavable 6xHis-tag; also called human pHAT; isolated human pHAT domain; source: E. coli BL21(DE3) pLysS, purified (NiNTA, Superdex 75)
stoichiometry N [3]: 2
